Experimental findings from paper PMC9127371, “Assembly of nuclear dimers of PI3K regulatory subunits is regulated by the Cdc42-activated tyrosine kinase ACK” (The Journal of Biological Chemistry, 2022) are described below.

In general, Kd refers to a measure of binding affinity in units of concentration. The low end stands for a tighter complex, the high end for a looser complex.

What all share (assay): fluorescence polarisation; SH2 domain titrated into 5-FAM-labelled peptide (20 nM CD28, YSLV, pYSLV; 40 nM YSLM, pYSLM), 298 K, 96-well plates, single site binding isotherm
Details in all cases: both partners purified
(In general: Fluorescence polarisation rises when a labelled molecule tumbles more slowly, as on binding a larger partner.)

The target in one experiment is T1, p85α cSH2 (614–720) (human, UniProt P27986 614-720).
T1 construct: PI3K regulatory subunit p85α, human, C-terminal SH2 domain, residues 614-720; also called cSH2 domain of p85α; source: E. coli, purified (glutathione-agarose, HRV 3C cleavage, S75 size exclusion)
T1 sequence (P27986 614-720): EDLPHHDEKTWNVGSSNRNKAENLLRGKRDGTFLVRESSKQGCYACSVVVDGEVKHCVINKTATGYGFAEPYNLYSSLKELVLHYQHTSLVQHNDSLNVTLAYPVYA

The target in a further experiment is T2, p85β cSH2 (603–712) (mouse, UniProt O08908 603-712).
T2 construct: PI3K regulatory subunit p85β, mouse, C-terminal SH2 domain, residues 603-712; also called cSH2 domain of p85β; source: E. coli, purified (glutathione-agarose, HRV 3C cleavage, S75 size exclusion)
T2 sequence (looked up): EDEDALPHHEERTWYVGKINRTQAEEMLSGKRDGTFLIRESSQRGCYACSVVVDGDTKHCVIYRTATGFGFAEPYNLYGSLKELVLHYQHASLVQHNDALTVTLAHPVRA

The next experiment deals with T3, p85α nSH2 (325–430) (human, UniProt P27986 325-430).
T3 construct: PI3K regulatory subunit p85α, human, N-terminal SH2 domain, residues 325-430; also called nSH2 domain of p85α; WT nSH2 domain of p85α; source: E. coli, purified (glutathione-agarose, HRV 3C cleavage, S75 size exclusion)
T3 sequence (P27986 325-430): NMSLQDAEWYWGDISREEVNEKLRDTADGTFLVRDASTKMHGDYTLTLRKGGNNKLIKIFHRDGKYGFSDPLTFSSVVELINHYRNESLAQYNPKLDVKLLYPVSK

The next experiment concerns the target T4, p85β nSH2 (312–425) (mouse, UniProt O08908 312-425).
T4 construct: PI3K regulatory subunit p85β, mouse, N-terminal SH2 domain, residues 312-425; also called nSH2 domain of p85β; WT nSH2 domain of p85β; source: E. coli, purified (Ni-NTA, HRV 3C cleavage, size exclusion); not shown: His6, N-terminal, cleaved; MBP, N-terminal, cleaved

Another experiment deals with T5, p85α nSH2 R358M (human, UniProt P27986 325-430, R358M).
T5 construct: PI3K regulatory subunit p85α, human, N-terminal SH2 domain, residues 325-430, with R358M; also called R358M variant; R358M SH2–null mutant; source: E. coli, purified
T5 sequence (P27986 325-430 R358M): as the sequence (P27986 325-430) above, with R34M counted along it

Square brackets hold non-standard residues; d marks the D form. Ends that are not written are not given here. * marks the point of attachment. 5FAM = O=C1OC2(c3ccc(O)cc3Oc3cc(O)ccc32)c2ccc(C(=O)*)cc21; pY = N[C@@H](Cc1ccc(OP(=O)(O)O)cc1)C(=O)O

T4 sequence (O08908 312-425): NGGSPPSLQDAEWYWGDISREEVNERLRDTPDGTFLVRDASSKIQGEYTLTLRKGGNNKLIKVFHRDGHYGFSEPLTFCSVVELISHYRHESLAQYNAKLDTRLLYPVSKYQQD

B1: [5-FAM]-SD-[pY]-MNMTP, CD28 peptide (peptide)
peptide: 5FAM-SD[pY]MNMTP
notes: Known p85 SH2 target peptide from CD28; also called control peptide from CD28; source: synthetic peptide; bought: Biomatik
As for B1, the figures for the Kd with p85α cSH2 (614–720) and with p85β cSH2 (603–712) were 43 nM and 100 nM, respectively.

B2: [5-FAM]-TEDQ-[pY]-SLMEDE, phosphorylated peptide based on p85β (peptide)
peptide: 5FAM-TEDQ[pY]SLMEDE
notes: also called β peptide; p85β (pYSLM) peptide; source: synthetic peptide; bought: Cambridge Research Biochemicals
In the case of B2, the Kd was determined as 82 nM with p85α nSH2 (325–430), 52 nM in the experiment with p85β nSH2 (312–425), 656 nM in the experiment with p85α cSH2 (614–720) and 2900 nM with p85α nSH2 R358M.

B3: [5-FAM]-TEDQ-[pY]-SLVEDE, phosphorylated peptide based on p85α (peptide)
peptide: 5FAM-TEDQ[pY]SLVEDE
notes: also called α peptide; p85α (pYSLV) peptide; source: synthetic peptide; bought: Biomatik
As for B3, the Kd with p85α nSH2 (325–430) is 2400 nM; with p85β nSH2 (312–425) it was 9000 nM; with p85α cSH2 (614–720) it was 84000 nM.
